Assay type in all cases: cell-based
The subject of data set [1] is model huntingtin polypeptide (HD-25Q-GFP, pHD-104Q-GFP, HD-Q104-myc, GFP-HD-Q104). Nature of the data set: Intrabody retargeting of model huntingtin polypeptide in co-transfected COS-7 cells (immunofluorescence). The conditions noted are these: co-transfected mammalian cells. On the procedure:
(§1) COS 7 cells were grown on cover glass in 6-well plates (10^5 cells/well) and co-transfected at a ratio of 3:1 (sFv to target) with plasmids containing either N-HD-C4 sFv or a negative control sFv (containing an HA tag and SV40 nuclear localization sequence (NLS)) and plasmids containing GFP-targeted fusion proteins using 5 μl SuperFect transfection reagent (QIAGEN). At 24 hours post-transfection, cells were prepared for immunofluorescence as follows: cells were fixed with 4% paraformaldehyde and permeabilized with 0.2% triton-X100. To prevent non-specific binding of secondary antibodies, cells were blocked with 10% normal goat serum in 3% BSA.
The assay is designed such that both the target antigen, i.e., the model huntingtin polypeptide, and the intrabody can be visualized. In particular, the huntingtin polypeptide is visualized by detecting fluorescence emitted by the GFP domain of the huntingtin-GFP fusion polypeptide and the intrabodies tested are visualized using a rhodamine-conjugated antibody that can specifically bind to the intrabody.
The model HD target polypeptide was fused to c-myc (EQKLISEEDL (SEQ ID NO: 45)) epitope tag (HD-Q104-myc). The intrabodies sequences were fused to a HA tag and a SV40 nuclear localization signal (sFv-HA-NLS), so that bound antigens should be retargeted to the cell nuclei. At 48 hours post-transfection, cells were fixed and permeabilized. The HD-Q104-myc proteins were detectable using anti-myc epitope antibodies (i.e., MAb 9E10 IgG), followed by FITC-labeled goat anti-mouse IgG. The sFv-HA-NLS intrabodies were detected by polyclonal rabbit anti-HA IgG followed by rhodamine-conjugated goat anti-rabbit IgG antibodies.
FIGS. 13A-F show stably transfected COS-7 cells expressing α-Nt-HD-C4 sFv-HA-NLS which were further transfected with plasmids encoding either the model altered huntingtin polypeptide with 104 glutamine repeats (FIGS. 13B, D, F) or the model altered DRPLA polypeptide with 81 glutamine repeats (FIGS. 13A, C, E). Both model altered polypeptides were fused to GFP (GFP-HD-Q104 and GFP-DRPLA-Q81, respectively).

For data set [2], the system named is DRPLA polypeptide (GFP-DRPLA-35Q, GFP-DRPLA-Q81). In words: Intrabody retargeting specificity in COS-7 cells with DRPLA polypeptide (immunofluorescence). To be noted: COS-7 co-transfection. How it is done:
as §1
The model DRPLA target polypeptide was fused to a GFP domain to track the expression and intracellular localization of the target polypeptide in the transfected cells. In addition, two different intrabodies, one specific to huntingtin, and a second intrabody specific to an unrelated polypeptide, were independently cotransfected with the DRPLA target polypeptide.
FIGS. 13A-F show stably transfected COS-7 cells expressing α-Nt-HD-C4 sFv-HA-NLS which were further transfected with plasmids encoding either the model altered huntingtin polypeptide with 104 glutamine repeats (FIGS. 13B, D, F) or the model altered DRPLA polypeptide with 81 glutamine repeats (FIGS. 13A, C, E). […]

In data set [3] the test system is HD-polyQ-GFP aggregation in COS-7, BHK-21 and HEK 293 cells. Nature of the data set: Quantitation of SDS-insoluble fluorescent aggregates after co-transfection of sFv and HD-polyQ-GFP. The conditions noted are these: for number of SDS-insoluble fluorescent aggregates: intrabody to antigen plasmid ratio 5:1, HD-polyQ72 or Q104, 48 hours, COS-7, BHK-21, HEK 293, versus empty vector/control. On the procedure:
Cells are shown photographed live at 48 hours after transfection by the calcium phosphate method; aggregates appear as intense foci of GFP signals. […] […] Cells were lysed with 2% SDS/2% Triton X-100/50 mM Tris at 48 hours after co-transfection. The number of insoluble, fluorescent aggregates in six or eight random fields was counted. Bars represent means of sextuplicate co-transfections ±SEM.
In particular, it was observed that the formation of pathological HD aggregates in situ display a striking punctate fluorescent morphology with polyglutamine lengths of 40 or more residues (i.e., with Q72 or Q104, but not Q25; FIG. 14). In addition, because these polypeptide aggregates are detergent-insoluble, a method for improved quantitation of residual fluorescent bodies after SDS lysis of transfected cells could be performed (Kazantsev et al., PNAS 96:11404-11409 (1999)). This improved assay allows for polypeptide aggregates to be more accurately enumerated because the plane of focus is eliminated as a variable in the experiment. Accordingly, this assay was utilized for quantitation of polyQ antigen aggregation, alone or in the presence of C4 sFv or control intrabody. COS-7, BHK, and 293 cells were co-transfected with plasmids that express the C4 or a control intrabody and HD-polyQ-eGFP fusions containing Q25, Q72, or Q104.

The subject of data set [4] is HD-polyQ72-GFP or HD-Q104-GFP in BHK cells. Nature of the data set: Double label immunofluorescence of BHK cells co-transfected with C4 sFv and HD-polyQ-GFP. To be noted: 5:1 C4:HD-polyQ-GFP. On the procedure: (§2) Some aggregates are found in 104Q co-transfections (never in 25Q), often in cells not expressing C4 (arrowheads), but in some dually-transfected cells as well (arrow). […] Cell lysates were collected from 5:1 co-transfections (sFv:HD-72Q-GFP) in duplicate at 24 hours (prior to prominent aggregate formation and loss of HD-72Q-GFP to the insoluble compartment) and subjected to SDS-PAGE. The membrane was probed with 1:1000 […] primary antibody (Quantum), stripped and reprobed with 1:500 anti-actin antibody (Sigma). HD-72Q-GFP bands were of similar intensity after detection by HRP-conjugated secondary antibody and chemiluminescence.
(§3) The typical intrabody constructs were fused to a C-terminal hemagglutinin (HA) peptide tag to facilitate immunodetection of the protein, while keeping the protein localized to the cytosol. […] The diffuse labeling was also characteristic of the normal length (25Q) construct, with or without intrabody co-transfection (FIG. 15).

Data set [5] relates to HD-72Q-GFP protein expression. Nature of the data set: Immunoblot of HD-72Q-GFP protein expression in co-transfections. The conditions noted are these: 5:1 co-transfections, 24 hours, different transfection paradigms. How it is done: as §2, §3
Background: Immunoblotting shows a protein as a band on a membrane.

Chain of model huntingtin polypeptide (HD-25Q-GFP, pHD-104Q-GFP, HD-Q104-myc, GFP-HD-Q104) (as listed by the source): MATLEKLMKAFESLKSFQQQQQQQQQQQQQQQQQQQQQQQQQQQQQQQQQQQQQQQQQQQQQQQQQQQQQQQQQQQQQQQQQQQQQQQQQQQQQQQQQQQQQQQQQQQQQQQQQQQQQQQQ
Chain of DRPLA polypeptide (GFP-DRPLA-35Q, GFP-DRPLA-Q81) (P54259 with tags, fused parts or gaps DUP487-502): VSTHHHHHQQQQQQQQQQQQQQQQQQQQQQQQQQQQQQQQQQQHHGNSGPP

B1: C4 sFv: human single-chain Fv intrabody from phage display, specific for the 17 N-terminal residues of huntingtin; SEQ ID NO: 6 (protein)
scFv: QVQLQESGGGLVQPGGSLRLSCAASGFTFSSYSMSWVRQAPGKGLEWVAVISYDGSNKYYADSVKGRFTISRDNSKNTLYLQMNSLRAEDTAVYYCARDRYFDLWGRGTLVTVSSGGGGSGGGGSGGGGSQSALTQPASVSGSPGQSITISCTGTSSDIGAYNYVSWYQQYPGKAPKLLIYDVSNRPSGISNRFSGSKSGDTASLTISGLQAEDEADYYCSSFANSGPLFGGGTKVTVL
With B1, the “retargeting of altered huntingtin polypeptide with 104 glutamines (pHD-104Q-GFP)” value in data set [1] is given as “can specifically retarget the cellular distribution of the model altered huntingtin polypeptide”. In data set [2], the “cellular distribution of GFP-DRPLA-35Q” value is “no change in the cellular distribution of DRPLA polypeptide”. Moreover, in data set [3] (intrabody to antigen plasmid ratio 3:1, HD-polyQ72-eGFP or HD-polyQ104-eGFP), the extent of aggregation result is given as “qualitative decrease in the extent of aggregation”. Also, the “number of SDS-insoluble fluorescent aggregates” value is “pronounced reduction in aggregation” in data set [3] and “significantly reduced the number of aggregates” in data set [3] (listed as C4). The “GFP label and aggregates in dual transfectants” value in data set [4] was “substantial diffuse GFP label, but with only an occasional fluorescent aggregate”. Also, the “HD protein expression level” value in data set [5] is “indistinguishable levels of products”.

For the origin of these results see US20050255113A1, “Methods and compositions for inhibiting polypeptide accumulation associated with neurological disorders” (New York State Department of Health and Abgenix, Inc., priority 1999, published 2005).
